# Target: CUL2^ZYG11B (residues 490–728) (human) (UniProt Q9C0D3)
# Assay: ITC; MicroCal iTC200; peptides (0.5–1 mmol/L) in the syringe, CUL2^ZYG11B(490–728) (0.03 mmol/L) in the cell; 18 injections of 2 μL; repeated 3 times
# Sequence of CUL2^ZYG11B (residues 490–728) (human) (Q9C0D3 490-728): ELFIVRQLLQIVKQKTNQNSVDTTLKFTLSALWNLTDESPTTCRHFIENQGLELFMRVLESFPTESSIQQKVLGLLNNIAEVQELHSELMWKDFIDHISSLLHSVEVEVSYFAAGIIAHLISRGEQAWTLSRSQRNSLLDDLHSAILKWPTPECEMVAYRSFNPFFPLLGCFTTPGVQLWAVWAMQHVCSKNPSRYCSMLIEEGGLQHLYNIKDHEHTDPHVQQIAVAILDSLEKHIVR
Substance,Kd [µM],fold decrease of binding against ORF10 N5 [fold]
SARS-CoV-2 ORF10 N5 peptide Y2A,25.2,
SARS-CoV-2 ORF10 N5 peptide G1S,,4
SARS-CoV-2 ORF10 N5 peptide Y2F,4.73,
SARS-CoV-2 ORF10 N5 peptide I3A,5.61,
SARS-CoV-2 ORF10 N5 peptide G1A,,4
SARS-CoV-2 ORF10 N5 peptide N4A,0.59,
SARS-CoV-2 ORF10 N5 peptide I3F,0.87,
